{
  "source": "paper PMC4309608",
  "origin": "cited, not measured here",
  "key": {"[1]": {"molecular_target": "E-cadherin (Homo sapiens) (UniProt P12830)", "sequence (P12830 155-709)": "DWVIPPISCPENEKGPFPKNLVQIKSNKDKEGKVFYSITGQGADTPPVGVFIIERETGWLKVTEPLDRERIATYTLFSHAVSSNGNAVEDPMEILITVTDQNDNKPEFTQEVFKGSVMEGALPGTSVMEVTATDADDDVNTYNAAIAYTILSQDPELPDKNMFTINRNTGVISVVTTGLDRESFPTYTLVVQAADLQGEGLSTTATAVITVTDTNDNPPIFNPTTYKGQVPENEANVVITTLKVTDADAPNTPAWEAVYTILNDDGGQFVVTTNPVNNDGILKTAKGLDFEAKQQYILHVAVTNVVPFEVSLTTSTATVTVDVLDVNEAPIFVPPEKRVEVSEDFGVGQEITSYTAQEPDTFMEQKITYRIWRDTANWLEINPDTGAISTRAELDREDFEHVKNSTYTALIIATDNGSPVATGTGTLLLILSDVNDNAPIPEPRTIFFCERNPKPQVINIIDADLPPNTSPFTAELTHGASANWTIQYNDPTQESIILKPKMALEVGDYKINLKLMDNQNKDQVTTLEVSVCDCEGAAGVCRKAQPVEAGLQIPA"}, "Met (Homo sapiens)": {"molecular_target": "Met (Homo sapiens) (UniProt P08581)", "sequence (P08581 25-932)": "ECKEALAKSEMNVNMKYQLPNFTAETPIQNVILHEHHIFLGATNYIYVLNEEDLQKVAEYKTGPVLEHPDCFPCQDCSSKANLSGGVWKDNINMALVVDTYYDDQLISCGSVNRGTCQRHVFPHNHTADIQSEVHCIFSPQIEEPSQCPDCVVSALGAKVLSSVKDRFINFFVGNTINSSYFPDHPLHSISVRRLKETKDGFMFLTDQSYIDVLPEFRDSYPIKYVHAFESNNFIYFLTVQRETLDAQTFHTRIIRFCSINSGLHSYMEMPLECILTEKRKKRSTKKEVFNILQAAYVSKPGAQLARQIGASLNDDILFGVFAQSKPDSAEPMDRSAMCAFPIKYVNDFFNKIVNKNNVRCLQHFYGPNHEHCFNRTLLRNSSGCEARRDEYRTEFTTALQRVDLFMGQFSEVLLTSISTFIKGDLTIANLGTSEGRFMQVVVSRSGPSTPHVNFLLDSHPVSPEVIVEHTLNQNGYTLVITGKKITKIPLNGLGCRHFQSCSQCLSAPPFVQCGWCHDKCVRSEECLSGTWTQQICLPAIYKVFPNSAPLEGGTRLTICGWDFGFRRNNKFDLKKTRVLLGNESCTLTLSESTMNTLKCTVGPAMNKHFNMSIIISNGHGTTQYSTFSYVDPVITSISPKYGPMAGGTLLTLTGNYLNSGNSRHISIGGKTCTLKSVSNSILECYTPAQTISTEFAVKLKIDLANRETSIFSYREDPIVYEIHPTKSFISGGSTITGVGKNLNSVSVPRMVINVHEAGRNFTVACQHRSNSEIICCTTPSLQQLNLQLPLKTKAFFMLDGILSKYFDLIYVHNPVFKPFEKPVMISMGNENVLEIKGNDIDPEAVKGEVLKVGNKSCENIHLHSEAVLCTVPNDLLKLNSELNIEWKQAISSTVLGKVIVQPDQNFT"}, "[2]": {"molecular_target": "TgRON2 (Toxoplasma gondii) (UniProt B6KV60)", "sequence (B6KV60 25-1277)": "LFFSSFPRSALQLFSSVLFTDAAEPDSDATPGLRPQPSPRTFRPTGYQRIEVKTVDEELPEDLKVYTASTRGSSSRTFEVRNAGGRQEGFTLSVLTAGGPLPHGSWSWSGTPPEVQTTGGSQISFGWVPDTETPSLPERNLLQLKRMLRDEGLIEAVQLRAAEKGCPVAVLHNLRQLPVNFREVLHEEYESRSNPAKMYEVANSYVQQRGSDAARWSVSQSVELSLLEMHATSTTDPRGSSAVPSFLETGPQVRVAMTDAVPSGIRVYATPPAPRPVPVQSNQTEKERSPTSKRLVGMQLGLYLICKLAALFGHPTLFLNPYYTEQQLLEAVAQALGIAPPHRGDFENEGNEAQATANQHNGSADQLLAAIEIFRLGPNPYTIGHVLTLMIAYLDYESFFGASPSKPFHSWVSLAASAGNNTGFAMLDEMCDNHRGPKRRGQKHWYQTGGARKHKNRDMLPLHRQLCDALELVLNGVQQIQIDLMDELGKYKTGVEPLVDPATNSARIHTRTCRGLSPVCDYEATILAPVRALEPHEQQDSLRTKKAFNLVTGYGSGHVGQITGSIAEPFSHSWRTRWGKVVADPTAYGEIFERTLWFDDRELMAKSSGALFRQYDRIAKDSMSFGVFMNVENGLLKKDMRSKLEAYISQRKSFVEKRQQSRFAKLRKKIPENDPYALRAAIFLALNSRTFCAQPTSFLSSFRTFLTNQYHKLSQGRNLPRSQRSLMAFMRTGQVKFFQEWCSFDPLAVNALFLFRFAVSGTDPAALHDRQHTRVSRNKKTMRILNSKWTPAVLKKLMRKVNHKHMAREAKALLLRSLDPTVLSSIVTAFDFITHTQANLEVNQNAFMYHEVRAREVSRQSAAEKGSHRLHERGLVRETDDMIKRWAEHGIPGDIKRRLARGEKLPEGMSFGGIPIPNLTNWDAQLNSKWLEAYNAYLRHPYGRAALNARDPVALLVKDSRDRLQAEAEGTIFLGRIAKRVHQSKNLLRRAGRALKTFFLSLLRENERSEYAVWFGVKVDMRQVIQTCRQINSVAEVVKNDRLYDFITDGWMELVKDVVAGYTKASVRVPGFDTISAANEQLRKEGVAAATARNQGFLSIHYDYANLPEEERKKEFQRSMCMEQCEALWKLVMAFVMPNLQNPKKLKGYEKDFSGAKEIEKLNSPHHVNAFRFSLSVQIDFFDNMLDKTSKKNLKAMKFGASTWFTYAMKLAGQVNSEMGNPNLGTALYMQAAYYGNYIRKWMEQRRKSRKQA"}},
  "data": [
    {"substance": "InlA (from UniProt P0DJM0)", "values": [
      {"measurement": "Kd", "setting": "[1]", "value": 8, "unit": "µM"}
    ]},
    {"substance": "InlB (from UniProt P0DQD3)", "values": [
      {"measurement": "Kd", "setting": "Met (Homo sapiens)", "value": 0.025, "unit": "µM"}
    ]},
    {"substance": "TgAMA1 (from UniProt B6KAM0)", "values": [
      {"measurement": "Kd", "setting": "[2]", "value": 0.015, "unit": "µM"}
    ]}
  ]
}
